Tested on: NCI-H226 cells
Assay: Lung cancer NCI-H226 model
Format: in vivo, BALB/c Nude mouse
Conditions: tail vein, twice a week x5, day 28 post-administration
Procedure: NCI-H226 cells were cultured in a RPMI-1640 medium containing 10% fetal bovine serum at 37°C in a 5% CO2 atmosphere. On the day of inoculation, NCI-H226 cells in the exponential growth phase were collected. Tumor cells were first resuspended in a mixture of PBS and Matrigel (1:1) and then subcutaneously inoculated. Each BALB/c Nude mouse was subcutaneously inoculated with 5 × 10^6 NCI-H226 tumor cells. When the average tumor volume in each group of mice reached 150 mm^3, the mice were divided into groups for dosing. 55 mice were divided into 11 groups, after which dosing began. The dosing schedule was twice a week for a total of five administrations via tail vein injection at doses of 1 mg/kg body weight or 5 mg/kg body weight. After dosing began, body weight and tumor volume were measured twice weekly. Tumor volume was calculated using the formula of: Tumor Volume (mm^3) = 0.5 × Tumor long diameter × Tumor short diameter^2. Observations concluded on day 28 post-administration, followed by the euthanasia of all mice. Data analysis was performed using the t-test.

B1: BAY-949343: ADC developed by Bayer: anti-MSLN monoclonal antibody MF-T (anetumab) conjugated to maytansinoid DM4 via SPDB linker (conjugate, chains of the INN, looked up)
VH: QVELVQSGAEVKKPGESLKISCKGSGYSFTSYWIGWVRQAPGKGLEWMGIIDPGDSRTRYSPSFQGQVTISADKSISTAYLQWSSLKASDTAMYYCARGQLYGGTYMDGWGQGTLVTVSS
VL: DIALTQPASVSGSPGQSITISCTGTSSDIGGYNSVSWYQQHPGKAPKLMIYGVNNRPSGVSNRFSGSKSGNTASLTISGLQAEDEADYYCSSYDIESATPVFGGGTKLTVL
modifications: DM4 via SPDB linker (ravtansine)
With B1 the average tumor volume (1 mg/kg) was 497 mm^3, the “tumor growth inhibition rate (TGI, %)” value (1 mg/kg) was 68% and the average tumor volume (5 mg/kg) was 253 mm^3. For the same molecule, the “tumor growth inhibition rate (TGI, %)” value (5 mg/kg) was 84%.
